Results as given in paper PMC8955854, “The Peptide Hormone CNMa Influences Egg Production in the Mosquito Aedes aegypti” (Insects, 2022).
Positions of bridges follow the written chain, without caps; N, C: chain ends. No end group written: not given here.

Experiments:
[1] = molecular target: AeCNMaR-1a (AAEL024199) (Aedes aegypti, UniProt A0A6I8U3V2); experiment: Receptor activation, aequorin luminescence in CHO-K1 aeq cells expressing AeCNMaR-1a; assay type: cell-based; conditions: CHO-K1 aeq cells, transient AeCNMaR-1a; luminescence over 10 s; 10 pM to 50 μM, quadruplicate; normalized to 50 µM AeCNMa; BSA assay media; read-out: EC50
Sequence of AeCNMaR-1a (AAEL024199) (A0A6I8U3V2 entry or part of it): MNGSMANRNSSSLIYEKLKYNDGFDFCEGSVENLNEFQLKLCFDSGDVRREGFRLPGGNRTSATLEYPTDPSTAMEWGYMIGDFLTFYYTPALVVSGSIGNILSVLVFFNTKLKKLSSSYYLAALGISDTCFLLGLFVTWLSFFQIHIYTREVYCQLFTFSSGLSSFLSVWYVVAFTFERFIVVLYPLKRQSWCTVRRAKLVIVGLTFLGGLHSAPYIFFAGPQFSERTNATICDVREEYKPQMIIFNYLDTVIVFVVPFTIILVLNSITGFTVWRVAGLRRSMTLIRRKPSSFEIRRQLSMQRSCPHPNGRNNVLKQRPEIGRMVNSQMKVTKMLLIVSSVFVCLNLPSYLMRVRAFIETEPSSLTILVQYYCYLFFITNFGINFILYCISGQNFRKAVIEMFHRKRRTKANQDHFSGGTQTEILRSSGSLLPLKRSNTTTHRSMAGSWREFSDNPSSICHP
Excerpt: The CNMa peptide was synthesized and HPLC purified (>90% purity) by Royobiotechs (Shanghai, China) based on the published sequence of the AeCNMa peptide sequence. Both the amidated (YMSLCHFKLCNMa) and the non-amidated (YMSLCHFKLCNM) were produced with a disulfide bridge between cysteines 5 and 10. The complete coding sequence of the two putative Ae. aegypti CNMa receptors (VectorBase genes AAEL024199 and AAEL018316, which we henceforth refer to as AeCNMaR-1a and AeCNMaR-1b, respectively) were commercially synthesized (Integrated DNA Technologies) and subsequently subcloned into a pcDNA3.1+ mammalian expression vector [24]. A Chinese hamster ovary cell line stably expressing the calcium-dependent bioluminescent protein aequorin (CHO-K1 aeq) was grown in Dulbecco’s modified eagles medium: nutrient F12 (DMEM:F12) media containing 10% heat-inactivated fetal bovine serum (FBS; Wisent, St. Bruno, QC, Canada), 200 μg/mL geneticin, and an antimycotic-antibiotic mixture as described previously. When cells reached 80–90% confluency, they were transfected using Lipofectamine 3000 transfection reagent following manufacturer recommendations (Life Technologies, Burlington, ON, Canada) to transiently express a mammalian construct in pcDNA3.1+ containing either of the two candidate CNMa receptors or mCherry (pcDNA3.1+ mCherry was a gift from Scott Gradia, Addgene plasmid #30125), the latter of which served as a negative control for the receptor functional assay. After 48 h following transfection, CHO-K1 aeq cells were harvested by dislodging from culture flasks using Dulbecco’s PBS containing EDTA and subsequently resuspended in receptor assay media.
Other Ae. aegypti peptides used in this study included “capability” (CAPA)-1 (GPTVGLFAFPRV-NH2), CAPA-2 (pQGLVPFPRV-NH2), AedaeCAPA-pyrokinin (PK) 1 (AGNSGANSGMWFGPRL-NH2), adipokinetic/corazonin-like peptide (ACP; pQVTFSRDWNA-NH2), adipokinetic hormone (AKH) (pQLTFTPSW-NH2), and corazonin (CRZ; pQTFQYSRGWTN-NH2). Serial dilutions of the peptide stocks were prepared in bovine serum albumin (BSA) assay media (DMEM:F12 media + 0.1% BSA + 1× antibiotic-antimycotic) to test concentrations ranging from 10 pM to 50 μM. Single concentrations of the various peptides were loaded into individual wells of white 96-well luminescence plates (Greiner Bio-One, Frickenhausen, Germany) with each peptide concentration tested in quadruplicate. CHO-K1 aeq cells expressing either of the two AeCNMa receptors or mCherry were prepared for the functional assay, as described above, and injected into each well of the 96-well luminescence plates by an automated injector unit integrated with the Synergy 2 Multi-Mode Microplate Reader (BioTek, Winooski, VT, USA). The kinetic luminescent response was measured for 10 s immediately following the application of the cells into the wells containing the different peptide treatments or the negative (i.e., BSA media alone) or positive (i.e., 50 μM ATP) controls as described previously. Data was assembled in Microsoft Excel and then analyzed in GraphPad Prism 7.02 (GraphPad Software, San Diego, CA, USA) where the dose–response curves from multiple biological replicates were used to determine the half maximal effective concentrations (EC50).

[2] = molecular target: AeCNMaR-1b (AAEL018316) (Aedes aegypti, UniProt A0A1S4G7J8); experiment: Receptor activation, aequorin luminescence in CHO-K1 aeq cells expressing AeCNMaR-1b; assay type: cell-based; conditions: CHO-K1 aeq cells, transient AeCNMaR-1b; luminescence over 10 s; 10 pM to 50 μM, quadruplicate; normalized to 50 µM AeCNMa; BSA assay media; read-out: EC50
Sequence of AeCNMaR-1b (AAEL018316) (A0A1S4G7J8 entry or part of it): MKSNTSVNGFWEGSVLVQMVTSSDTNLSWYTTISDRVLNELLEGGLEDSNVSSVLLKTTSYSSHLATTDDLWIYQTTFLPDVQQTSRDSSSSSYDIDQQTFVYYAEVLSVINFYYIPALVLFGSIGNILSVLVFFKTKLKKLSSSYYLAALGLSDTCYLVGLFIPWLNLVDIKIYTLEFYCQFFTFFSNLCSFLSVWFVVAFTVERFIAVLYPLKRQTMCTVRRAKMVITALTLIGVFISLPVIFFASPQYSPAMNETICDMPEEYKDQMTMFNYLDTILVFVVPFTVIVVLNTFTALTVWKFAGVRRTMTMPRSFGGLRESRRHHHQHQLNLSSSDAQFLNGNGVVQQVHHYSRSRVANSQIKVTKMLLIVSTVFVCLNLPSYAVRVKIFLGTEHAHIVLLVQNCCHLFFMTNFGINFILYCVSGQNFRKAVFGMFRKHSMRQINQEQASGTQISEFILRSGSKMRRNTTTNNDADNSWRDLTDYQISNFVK
Excerpt: The CNMa peptide was synthesized and HPLC purified (>90% purity) by Royobiotechs (Shanghai, China) based on the published sequence of the AeCNMa peptide sequence. Both the amidated (YMSLCHFKLCNMa) and the non-amidated (YMSLCHFKLCNM) were produced with a disulfide bridge between cysteines 5 and 10. The complete coding sequence of the two putative Ae. aegypti CNMa receptors (VectorBase genes AAEL024199 and AAEL018316, which we henceforth refer to as AeCNMaR-1a and AeCNMaR-1b, respectively) were commercially synthesized (Integrated DNA Technologies) and subsequently subcloned into a pcDNA3.1+ mammalian expression vector [24]. A Chinese hamster ovary cell line stably expressing the calcium-dependent bioluminescent protein aequorin (CHO-K1 aeq) was grown in Dulbecco’s modified eagles medium: nutrient F12 (DMEM:F12) media containing 10% heat-inactivated fetal bovine serum (FBS; Wisent, St. Bruno, QC, Canada), 200 μg/mL geneticin, and an antimycotic-antibiotic mixture as described previously. […]
Other Ae. aegypti peptides used in this study included “capability” (CAPA)-1 (GPTVGLFAFPRV-NH2), CAPA-2 (pQGLVPFPRV-NH2), AedaeCAPA-pyrokinin (PK) 1 (AGNSGANSGMWFGPRL-NH2), adipokinetic/corazonin-like peptide (ACP; pQVTFSRDWNA-NH2), adipokinetic hormone (AKH) (pQLTFTPSW-NH2), and corazonin (CRZ; pQTFQYSRGWTN-NH2). […] Single concentrations of the various peptides were loaded into individual wells of white 96-well luminescence plates (Greiner Bio-One, Frickenhausen, Germany) with each peptide concentration tested in quadruplicate. CHO-K1 aeq cells expressing either of the two AeCNMa receptors or mCherry were prepared for the functional assay, as described above, and injected into each well of the 96-well luminescence plates by an automated injector unit integrated with the Synergy 2 Multi-Mode Microplate Reader (BioTek, Winooski, VT, USA). The kinetic luminescent response was measured for 10 s immediately following the application of the cells into the wells containing the different peptide treatments or the negative (i.e., BSA media alone) or positive (i.e., 50 μM ATP) controls as described previously. Data was assembled in Microsoft Excel and then analyzed in GraphPad Prism 7.02 (GraphPad Software, San Diego, CA, USA) where the dose–response curves from multiple biological replicates were used to determine the half maximal effective concentrations (EC50).

YMSLCHFKLCNMa (disulfide) (YMSLCHFKLCNM-NH2; disulfide 5-10; N-terminus assumed; SMILES CSCC[C@H](NC(=O)[C@H](CC(N)=O)NC(=O)[C@@H]1CSSC[C@H](NC(=O)[C@H](CC(C)C)NC(=O)[C@H](CO)NC(=O)[C@H](CCSC)NC(=O)[C@@H](N)Cc2ccc(O)cc2)C(=O)N[C@@H](Cc2c[nH]cn2)C(=O)N[C@@H](Cc2ccccc2)C(=O)N[C@@H](CCCCN)C(=O)N[C@@H](CC(C)C)C(=O)N1)C(N)=O) [AeCNMa, Ae. aegypti CNMa peptide, amidated, HPLC purified (>90% purity)]
EC50 [1]: 5.17 nM | EC50 [2]: 51.8 nM
